The target in one data set is T1, human recombinant PLA2G5 (Homo sapiens, UniProt P39877).
T1 construct: purchased Cayman chemical 10009563
T1 sequence (P39877 21-138): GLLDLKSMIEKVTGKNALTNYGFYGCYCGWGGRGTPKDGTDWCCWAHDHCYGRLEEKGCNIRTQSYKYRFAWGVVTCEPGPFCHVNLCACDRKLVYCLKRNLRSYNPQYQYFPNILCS
The data set is described as follows: In vitro erythrocyte lysis assay with varespladib. Type of data set: cell-based. To be noted: 100 nM of varespladib; PS-exposing erythrocytes. Here is the method: (§1) The inventors hypothesized that PLA2G5 impacted red blood cells because of the impact of PLA2G5 blockade on splenic red pulp macrophages and iron stores. […] Next, the inventors examined the effect of osmotic pressure on the hemolysis induced by rPLA2G5.
In vitro erythrocyte lysis assay. Mouse whole blood was spun at 1,000 g, the plasma and buffy coat were removed, and red blood cells were washed three times in Hepes-buffered saline. Subsequently, a portion of erythrocytes was incubated with 100 μM CaCl2) in Hepes-buffered saline for 3 min at 37° C. Calcium ionophore (Cayman Chemical, A23187) was added to a final concentration of 4 μM, and the cells were further incubated for 10 min at 37° C. to induce membrane phospholipid (PS) scrambling. After that, 2 mM EDTA was added to stop the reaction. […] Hemolysis was measured by determining the amount of oxyhemoglobin in the supernatant of erythrocyte suspensions after centrifugation at 4,000 g. The absorbance at 414 nm in the supernatant of erythrocyte suspensions was measured using Nanodrop (Thermoscientific) and compared to that of a hemolyzed aliquot of the same erythrocyte suspension treated with Triton X-100.

The subject of another data set is mouse RBCs. The data set is described as follows: In vitro erythrocyte lysis assay with recombinant PLA2G5. The format is cell-based. Here is the method:
as §1
In vitro erythrocyte lysis assay. Mouse whole blood was spun at 1,000 g, the plasma and buffy coat were removed, and red blood cells were washed three times in Hepes-buffered saline. Subsequently, a portion of erythrocytes was incubated with 100 μM CaCl2) in Hepes-buffered saline for 3 min at 37° C. Calcium ionophore (Cayman Chemical, A23187) was added to a final concentration of 4 μM, and the cells were further incubated for 10 min at 37° C. to induce membrane phospholipid (PS) scrambling. After that, 2 mM EDTA was added to stop the reaction. In the presence or absence of 100 nM of varespladib, hypertonic solution (100 mM NaCl), or hypotonic solution (water-diluted Hepes-buffered saline), PS-exposing or untreated erythrocytes (10^9 cells/mL) were incubated with 5, 50, or 500 ng/mL of human recombinant PLA2G5 (Cayman chemical, 10009563) for 1 h at 37° C. in Hepes-buffered saline with 2 mM of calcium for the activity of PLA2G5. Hemolysis was measured by determining the amount of oxyhemoglobin in the supernatant of erythrocyte suspensions after centrifugation at 4,000 g. The absorbance at 414 nm in the supernatant of erythrocyte suspensions was measured using Nanodrop (Thermoscientific) and compared to that of a hemolyzed aliquot of the same erythrocyte suspension treated with Triton X-100.

The next data set relates to erythrocytes. Nature of the data set: Lipidomics analysis of erythrocytes incubated with rPLA2G5. Type of data set: cell-based, mouse. As to conditions: 100 ng/mL rPLA2G5; 1 h at 37° C. The source says: To elucidate how PLA2G5 affected RBC membranes at the molecular level during hemolysis, the inventors performed lipidomics on erythrocytes in the presence or absence of rPLA2G5 in vitro.
Lipidomics analysis of erythrocytes. The procedures for lipidomics analysis using high-performance liquid chromatography coupled with electrospray tandem mass spectrometry (LC-ESI-MS/MS) were described above. Mouse whole blood was spun at 1,000 g, the plasma and buffy coat were removed, and red blood cells were washed three times in Hepes-buffered saline. Subsequently, a portion of erythrocytes was incubated with 100 μM CaCl2) in Hepes-buffered saline for 3 min at 37° C. Calcium ionophore (Cayman Chemical, A23187) was added to a final concentration of 4 μM, and the cells were further incubated for 10 min at 37° C. to induce membrane phospholipid (PS) scrambling. After that, 2 mM EDTA was added to stop the reaction. PS-exposing or untreated erythrocytes (10^9 cells/mL) were incubated with or without 100 ng/mL of human recombinant PLA2G5 (Cayman chemical, 10009563) for 1 h at 37° C. in Hepes-buffered saline with 2 mM of calcium for the activity of PLA2G5. The samples were kept at −80° C. until the following procedures.

Data set [1] in a line: Recombinant PLA2G5 injection in naive mice. The format is in vivo, mouse. To be noted: 10 μg rPLA2G5 intravenously. The source says:
Next, the inventors hypothesized that PLA2G5 impacted red blood cells in vivo during sepsis. To test this hypothesis, the inventors measured the plasma levels of heme, a degradation product of cell-free hemoglobin, in Pla2g5^+/+ and Pla2g5^−/− mice challenged with LPS. The inventors found a significant decrease in the plasma levels of heme in Pla2g5-deficient mice compared to wild type (FIG. 7A). […] The inventors next asked if PLA2G5 would be sufficient to induce intravascular hemolysis in vivo by injecting rPLA2G5 in naïve mice.
Recombinant PLA2G5 injections. C57BL/6J mice were injected intravenously with 10 μg of recombinant PLA2G5 (Cayman chemical, 10009563).
Blood analysis. Mouse whole blood was harvested by cardiac puncture and plasma and serum were isolated using lithium heparin coated Microtainer blood collection tubes (BD 365965) and Microtainer blood collection tubes (BD 365978), respectively. For flow cytometric, bead-based immunoassays, serum was diluted and processed using the LEGENDplex Mouse Macrophage/Microglia Panel (BioLegend 740846) kit. Data were acquired on the NovoCyte flow cytometer (Acea Biosciences/Agilent) and analyzed using the LEGNEDplex software v8 (BioLegend). To measure tissue injury marker levels in sera or plasma, samples were processed by In Vivo Animal Core, University of Michigan, with the following kits for BUN (BioAssay Systems DIUR-100), ALT (Cayman Chemical 700260), and troponin-I (Life Diagnostics CTNI-1-HS) levels according to the manufacturer's instructions, or with a Vet Axcel blood chemistry analyser (Alfa Wasserman). Total plasma heme was measured with the 3,3′,5,5′ tetramethylbenzidine (TMB) peroxidase assay and oxyhemoglobin with a Nanodrop One (Thermoscientific) instrument.

For `CCc1c(C(=O)C(N)=O)c2c(OCC(=O)O)cccc2n1Cc1ccccc1` [varespladib], the “effect on the hemolytic effects of rPLA2G5” value on human recombinant PLA2G5 is given as “the hemolytic effects of rPLA2G5 were dependent on its phospholipase activity”.

B1: rPLA2G5: human recombinant PLA2G5 (Cayman chemical, 10009563) (protein, UniProt P39877 21-138, looked up)
Phospholipase A2 group V: GLLDLKSMIEKVTGKNALTNYGFYGCYCGWGGRGTPKDGTDWCCWAHDHCYGRLEEKGCNIRTQSYKYRFAWGVVTCEPGPFCHVNLCACDRKLVYCLKRNLRSYNPQYQYFPNILCS
B1: in the data set on mouse RBCs (RBCs treated with Ca2+ and calcium ionophore, 5, 50, or 500 ng/mL rPLA2G5, 1 h at 37° C.), the “RBC lysis (cell-free oxyhemoglobin)” value is on record as “increased RBC lysis in a dose-dependent manner”. Further, the “hemolysis mediated by rPLA2G5 in hypertonic conditions” value with mouse RBCs (hypertonic solution (100 mM NaCl)) is listed as “inhibited hemolysis”. In the data set on mouse RBCs (hypotonic solution (water-diluted Hepes-buffered saline)), the “hemolysis mediated by rPLA2G5 in hypotonic conditions” value is reported as “promoted hemolysis”. The “lipids released from RBC membranes” value in the data set on erythrocytes was “release of lysophospholipids with saturation and lower degrees of unsaturation and fatty acids”. In addition, in data set [1], the “plasma level of heme” value is on record as “sufficient to elevate”, the “plasma level of oxyhemoglobin” value is reported as “sufficient to elevate”, the “serum level of ALT” value was “sufficient to elevate” and the “serum level of BUN” value is given as “sufficient to elevate”.
